PMC6628420

These substances were tested against CD11b, cellular receptor of LukAB, on PMNs (HL-60 cells differentiated with DMSO) (human (endogenous in HL-60)) (UniProt P11215).
With “LukAB heterodimer LukA D39A / LukB R23E (complex)” the reversal of the toxicity of 0.42 nM LukABWT on PMNs by the mutant (0.4 pM-13 nM), set up as competition with LukABWT for receptor binding; mutant/WT molar ratio at 50% reversal (mutant/WT molar ratio) was 0.17.
“LukAB heterodimer LukA D39R / LukB R23E (complex)” was tested, and the reversal of the toxicity of 0.42 nM LukABWT on PMNs by the mutant (0.4 pM-13 nM), set up as competition with LukABWT for receptor binding; mutant/WT molar ratio at 50% reversal (mutant/WT molar ratio) was greater than 30.
For “LukAB heterodimer LukA wild type / LukB K12A/K19A/R23A (complex)”, the reversal of the toxicity of 0.42 nM LukABWT on PMNs by the mutant (0.4 pM-13 nM), set up as competition with LukABWT for receptor binding; mutant/WT molar ratio at 50% reversal (mutant/WT molar ratio) was greater than 30.
Work on “LukAB heterodimer LukA wild type / LukB R23E (complex)” yielded a reversal of the toxicity of 0.42 nM LukABWT on PMNs by the mutant (0.4 pM-13 nM), set up as competition with LukABWT for receptor binding; mutant/WT molar ratio at 50% reversal (mutant/WT molar ratio) of 0.64.
Work on “LukAB heterodimer LukA wild type / LukB with the N-terminal 30 residues of HlgB (complex)” yielded a reversal of the toxicity of 0.42 nM LukABWT on PMNs by the mutant (0.4 pM-13 nM), set up as competition with LukABWT for receptor binding; mutant/WT molar ratio at 50% reversal (mutant/WT molar ratio) of 0.18.
